For orientation: Kd means the free concentration of one partner at which half of the binding sites on the other are occupied at equilibrium, for simple one-to-one binding.

Data on 2 molecules can be found in publication PMC7108862, “GPC1 specific CAR-T cells eradicate established solid tumor without adverse effects and synergize with anti-PD-1 Ab” (eLife, 2020).

For experiment [1], the target named is T1, recombinant hGPC1 protein (Homo sapiens, UniProt P35052).
T1 construct: glypican-1 (GPC1), human, recombinant protein from Biolegend; also called Human GPC1; human glypican-1; source: bought: Biolegend
In words: SPR; scFv-Fc fusion protein (1 μg/ml) captured by polyclonal rabbit anti-mouse IgG immobilised on CM5 chip; recombinant hGPC1 (6.25–400 nM) or mGPC1 (25–400 nM) injected; 25°C, HBS-EP+ buffer, Biacore T200. Conditions: both partners purified. For orientation: In SPR one partner is held on a chip, and binding of the other changes the refractive index at the surface.

The target of experiment [2] is T2, recombinant mGPC1 protein (Mus musculus, UniProt Q9QZF2).
T2 construct: glypican-1 (GPC1), mouse, recombinant protein from Biolegend; also called Mouse GPC1; mouse glypican-1; source: bought: Biolegend
Described as above. Particulars: both partners purified.

T2 sequence (Q9QZF2 24-529): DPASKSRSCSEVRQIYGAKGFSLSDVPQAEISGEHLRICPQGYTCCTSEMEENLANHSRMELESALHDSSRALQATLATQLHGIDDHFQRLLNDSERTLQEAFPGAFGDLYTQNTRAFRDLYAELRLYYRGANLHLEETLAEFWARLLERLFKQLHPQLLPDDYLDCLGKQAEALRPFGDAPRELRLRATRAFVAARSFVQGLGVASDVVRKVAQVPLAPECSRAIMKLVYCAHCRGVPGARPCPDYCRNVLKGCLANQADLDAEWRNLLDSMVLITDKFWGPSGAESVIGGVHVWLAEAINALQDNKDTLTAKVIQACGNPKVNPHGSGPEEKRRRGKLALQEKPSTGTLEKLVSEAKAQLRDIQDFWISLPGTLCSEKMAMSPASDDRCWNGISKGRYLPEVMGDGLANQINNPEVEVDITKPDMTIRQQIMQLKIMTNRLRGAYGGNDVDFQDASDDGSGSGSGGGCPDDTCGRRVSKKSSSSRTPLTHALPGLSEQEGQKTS
T1 sequence (P35052 24-530): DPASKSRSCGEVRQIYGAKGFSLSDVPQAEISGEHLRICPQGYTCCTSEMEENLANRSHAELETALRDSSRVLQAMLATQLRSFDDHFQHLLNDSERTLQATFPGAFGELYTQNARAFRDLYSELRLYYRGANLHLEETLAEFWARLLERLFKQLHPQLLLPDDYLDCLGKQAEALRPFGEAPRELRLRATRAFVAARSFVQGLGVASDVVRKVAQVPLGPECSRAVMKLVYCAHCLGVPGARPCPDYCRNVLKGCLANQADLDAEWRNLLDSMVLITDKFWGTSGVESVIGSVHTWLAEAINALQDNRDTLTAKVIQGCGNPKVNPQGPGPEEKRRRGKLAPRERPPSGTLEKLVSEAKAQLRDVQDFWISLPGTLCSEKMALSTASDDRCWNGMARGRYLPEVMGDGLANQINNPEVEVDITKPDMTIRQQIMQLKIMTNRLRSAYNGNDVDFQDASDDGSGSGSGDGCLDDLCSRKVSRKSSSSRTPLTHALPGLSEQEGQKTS

B1: LH form of anti GPC1 scFv-mIgG2a Fc fusion protein (scFv, V domains shown)
VH: AVTLDESGGGLQTPGRALSLVCKASGFTFSRYAMYWVRQAPGKGLEFVAGIGNTGRYTGYGSAVKGRATISRDSGQSTVRLQLNNLRAEDTGNYYCAKSVSPYCCDAADIDAWGHGTEVIVSS
VL: ASTQPSSVSANPGETVKITCSGGSSGYAYGWYQQKSPGSAPVTLLYSNNNRPSDIPSRFSGSKSGSTATLTITGVQAEDEAVYFCGSVDSSSYAGIFGAGTTLTVL
notes: VL of anti-GPC1 mAb (clone: 1–12); purple) and its source data 1; linker of the scFv; orange); VH of anti-GPC1 mAb (clone: 1–12); green) and its source data 1; scFv cloned into pCAG-Neo mIgG2a-Fc plasmid (FUJIFILM Wako); Variable regions come from a chicken-based antibody; In the functional rows the same scFv stood as a CAR (human CD28 and CD3ζ domains) on human T cells; also called LH form of …
B1: the Kd is 9.06 nM in experiment [1] and 51.8 nM in experiment [2].

B2: HL form of anti GPC1 scFv-mIgG2a Fc fusion protein (scFv, V domains shown)
VH: B1 VH
VL: B1 VL
notes: VH of anti-GPC1 mAb (clone: 1–12), as the VH of m1; linker of the scFv; orange); VL of anti-GPC1 mAb (clone: 1–12), as the VL of m1; scFv cloned into pCAG-Neo mIgG2a-Fc plasmid (FUJIFILM Wako); Variable regions come from a chicken-based antibody; In the functional rows the same scFv stood as a CAR on human T cells (human CD28/CD3ζ) or murine T cells (mouse CD28/CD3ζ); also called HL form of scFv; …
As to B2, the values for the Kd in experiment [1] and in experiment [2] were 12.2 nM and 109 nM, respectively.
